From paper PMC4338372 (FEBS Open Bio, 2015)

B1: GST-fused SH3 domain of Hck (GST-SH3Hck) (domain or fragment)
chain: not shown

Experiments:
[1] = target: ^15N-labeled SH3 domain of Hck (SH3Hck), GST tag cleaved (UniProt P08631 77-141, uniformly ^15N labeled); assay: NMR titration
[2] = target: 6His-tagged ELMO1 C-terminal domain with the polyproline motif (ELMO_(532–727)) (mouse, UniProt Q8BPU7 532-727); assay: ELISA

^15N-labeled SH3 domain of Hck (SH3Hck), GST tag cleaved, sequence (P08631 77-141): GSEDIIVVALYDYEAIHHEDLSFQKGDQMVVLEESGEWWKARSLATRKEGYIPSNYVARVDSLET

Binder	Kd [1] [µM]	Kd [2] [µM]
DLENIQIPDAPPPIPKEPSNYDFVYDCN [ELMO_(700–727) peptide (28 C-terminal amino-acids of ELMO1)]	1600 ± 300	
B1		~10
